Results reported in IntAct's records for PubMed 19632184.

B1: Kinesin-like protein KIF2C (Homo sapiens), Q99661 (parent)
chain: MAMDSSLQARLFPGLAIKIQRSNGLIHSANVRTVNLEKSCVSVEWAEGGATKGKEIDFDDVAAINPELLQLLPLHPKDNLPLQENVTIQKQKRRSVNSKIPAPKESLRSRSTRMSTVSELRITAQENDMEVELPAAANSRKQFSVPPAPTRPSCPAVAEIPLRMVSEEMEEQVHSIRGSSSANPVNSVRRKSCLVKEVEKMKNKREEKKAQNSEMRMKRAQEYDSSFPNWEFARMIKEFRATLECHPLTMTDPIEEHRICVCVRKRPLNKQELAKKEIDVISIPSKCLLLVHEPKLKVDLTKYLENQAFCFDFAFDETASNEVVYRFTARPLVQTIFEGGKATCFAYGQTGSGKTHTMGGDLSGKAQNASKGIYAMASRDVFLLKNQPCYRKLGLEVYVTFFEIYNGKLFDLLNKKAKLRVLEDGKQQVQVVGLQEHLVNSADDVIKMIDMGSACRTSGQTFANSNSSRSHACFQIILRAKGRMHGKFSLVDLAGNERGADTSSADRQTRMEGAEINKSLLALKECIRALGQNKAHTPFRESKLTQVLRDSFIGENSRTCMIATISPGISSCEYTLNTLRYADRVKELSPHSGPSGEQLIQMETEEMEACSNGALIPGNLSKEEEELSSQMSSFNEAMTQIRELEEKAMEELKEIIQQGPDWLELSEMTEQPDYDLETFVNKAESALAQQAKHFSALRDVIKALRLAMQLEEQASRQISSKKRPQ

Variants of: B1
Settings: with mare1_human MAPRE1, Q15691
Sequence of mare1_human MAPRE1, Q15691 (Q15691 whole entry): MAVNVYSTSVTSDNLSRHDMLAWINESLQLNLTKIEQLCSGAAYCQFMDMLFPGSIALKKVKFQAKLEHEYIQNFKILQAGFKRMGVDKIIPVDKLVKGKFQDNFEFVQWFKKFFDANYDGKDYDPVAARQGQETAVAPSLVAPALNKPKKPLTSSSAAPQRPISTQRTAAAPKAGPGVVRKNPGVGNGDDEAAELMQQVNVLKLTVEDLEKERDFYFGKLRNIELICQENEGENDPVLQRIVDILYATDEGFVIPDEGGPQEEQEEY

effect of a mutation on the interaction	Variant
decreasing interaction	I100N;P101N
